Data set [1] has as its system Saccharomyces cerevisiae. Description: protein stability index of tFT-peptide fusion (C-terminal peptide) (PSI (0-1 scale)); higher = more stable (slower turnover). The method, then:
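MPS profiling in S. cerevisiae of the tFT-X12 degron library: putative degron peptides plus stable controls, 12 aa, fused to the C-terminus of a sfGFP-mCherry timer. Cells are FACS-sorted into 8 mCherry/sfGFP bins and deep-sequenced. PSI runs from 0 (unstable) to 1 (stable). Backgrounds are wild type, das1Δ and doa10Δ at 30 °C, and wild type, das1Δ, cdc34-1 and cdc53-1 at 37 °C; 2-3 technical replicates each.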

The subject of data set [2] is Saccharomyces cerevisiae. The description is as above. To be noted: genetic background: wild type; temperature: 30 C.
The mark [3] stands for this setting: genetic background: cdc34-1, temperature: 37 C.
Where [4] appears, read: genetic background: cdc53-1, temperature: 37 C.
Where [5] appears, read: genetic background: das1 deletion, temperature: 30 C.
Where [6] appears, read: genetic background: das1 deletion, temperature: 37 C.
The mark [7] stands for this setting: genetic background: doa10 deletion, temperature: 30 C.
Setting [8] is: genetic background: wild type, temperature: 30 C.
Setting [9] is: genetic background: wild type, temperature: 37 C.

± gives the standard deviation of the averaged measurements.
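Further: PSI is a weighted mean of sequencing reads over stability bins, variants kept only with over 10 reads, mCherry proximal and sfGFP distal, peptide attached via GGGS linker.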

Turning to VSVFWVFLLVAG, the protein stability index in the data set on Saccharomyces cerevisiae [1] (setting [3]) was found to be 0.223 ± 0.0059; with Saccharomyces cerevisiae [1] (setting [4]), 0.375 ± 0.011; with Saccharomyces cerevisiae [1] (setting [5]) it was 0.245 ± 0.024; in the data set on Saccharomyces cerevisiae [1] (setting [6]) it was 0.4401 ± 0.0035; in the data set on Saccharomyces cerevisiae [1] (setting [7]), 0.189 ± 0.012; in the data set on Saccharomyces cerevisiae [1] (setting [8]) it was 0.218 ± 0.024. The sequence further returned a protein stability index with Saccharomyces cerevisiae [1] (setting [9]) of 0.383 ± 0.016.
In the data set on Saccharomyces cerevisiae [2], WLAVVGRDGFLG came in with a protein stability index of 0.729 ± 0.016.
Still for that read-out and setting: the figure for WLFSSRDSGACR is 0.8029 ± 0.0011; for WLGGIFRNKVFT it is 0.621 ± 0.013.
Sequence WLGSGESVGHAG gave a protein stability index with Saccharomyces cerevisiae [2] of 0.686 ± 0.067.
As to WLGTGIILPITG, in the data set with Saccharomyces cerevisiae [2], the protein stability index came out at 0.793 ± 0.13.
Still for that read-out and setting: the figure for WLGWIVNNSNTE is 0.753 ± 0.058; for WLLSVYSVGTDV it is 0.589 ± 0.2.
Same read-out and setting: the same measure for WLSDSCRMNSEV: 0.666 ± 0.035; for WLSLPLAHLFSP: 0.681 ± 0.047.
On the same count and under the same terms, the figure for WLVGSGGVWSGR is 0.706 ± 0.019; for WLVRNVVGGGLC it is 0.701 ± 0.046.
For the sequence WLVSPPTPFPLP, the protein stability index in the data set on Saccharomyces cerevisiae [2] is 0.6422 ± 0.0039.
On the same count and under the same terms, the figure for WMDNTKKGNKDS is 0.736 ± 0.06; for WMSGETTHTGRP it is 0.742 ± 0.026; for WMTFTTAVTDGG it is 0.656 ± 0.046.
On the same count and under the same terms, the figure for WNLESKTEARTR is 0.704 ± 0.049; for WNRNVEILSALA it is 0.548 ± 0.012; for WNRSAFLSSGTI it is 0.67578 ± 3.2e-05.
Sequence WNRVPEWTREPL showed a protein stability index in the data set with Saccharomyces cerevisiae [2] of 0.719 ± 0.022.
Still for that read-out and setting: the same measure for WNSISGRTVVYM: 0.709 ± 0.092.
Still for that read-out and setting: the same measure for WPAFYTSRLLLR: 0.615 ± 0.034.
As for WPPPPPSLLLLC, the protein stability index in the data set on Saccharomyces cerevisiae [1] (setting [3]) worked out at 0.4666 ± 0.0016; in the data set with Saccharomyces cerevisiae [1] (setting [4]), 0.548 ± 0.022; in the data set on Saccharomyces cerevisiae [1] (setting [5]), 0.473 ± 0.016; with Saccharomyces cerevisiae [1] (setting [6]), 0.611 ± 0.017; in the data set on Saccharomyces cerevisiae [1] (setting [7]), 0.127 ± 0.0019; with Saccharomyces cerevisiae [1] (setting [8]), 0.149 ± 0.019. The protein stability index in the data set with Saccharomyces cerevisiae [1] (setting [9]) was found to be 0.177 ± 0.024.
WPPPPPYSPFSL: the protein stability index in the data set on Saccharomyces cerevisiae [2] was found to be 0.737 ± 0.02.
Still for that read-out and setting: the figure for WPVALAPTRLEI is 0.608 ± 0.072; for WQIRREMFECGL it is 0.677 ± 0.025; for WRAGGGGGPAGV it is 0.679 ± 0.029.
On the same count and under the same terms, the figure for WRAGSGGGPLAS is 0.68 ± 0.043; for WRCAGGGGVGGG it is 0.6956 ± 0.0011; for WRELGCFGVRGD it is 0.732 ± 0.022.
Still for that read-out and setting: the same measure for WRLFFGVNLIKF: 0.622 ± 0.037; for WRSIQLVHDKRR: 0.6808 ± 0.0056; for WRVMCLQRCSGV: 0.541 ± 0.011.
Consider WRYFLGKGRMSF, for which, in the data set on Saccharomyces cerevisiae [2], the protein stability index amounted to 0.742 ± 0.014.
The same measure, in the same setting: the figure for WSDGGRGGGWGK is 0.656 ± 0.015.
In the data set with Saccharomyces cerevisiae [2], WSPLFPLLASST came in with a protein stability index of 0.678 ± 0.016.
Same read-out and setting: the same measure for WSREGGVVESVG: 0.709 ± 0.019; for WSRGGGGHKEAM: 0.639 ± 0.022.
Still for that read-out and setting: the same measure for WSRPAGVRSSLA: 0.7039 ± 0.00079; for WSRPVTFRIGLW: 0.653 ± 0.017; for WTGGEEGTAVQA: 0.676 ± 0.025.
The same measure, in the same setting: the figure for WTGTTGQSLYLS is 0.733 ± 0.1; for WVAADTDGEPKH it is 0.6986 ± 0.0057.
As for WVCLGWGVPRSG, the protein stability index with Saccharomyces cerevisiae [2] came out at 0.835 ± 0.031.
Same read-out and setting: the same measure for WVFSGTWSSVSG: 0.671 ± 0.027; for WVGGGGGPSGVV: 0.733 ± 0.042.
Still for that read-out and setting: the same measure for WVGWVACGAGGG: 0.651 ± 0.061; for WVHTLHARIGCQ: 0.625 ± 0.046; for WVKGRVKIEGGQ: 0.68 ± 0.042.
In turn, WVLFWWRGRSGR came in with a protein stability index in the data set on Saccharomyces cerevisiae [2] of 0.665 ± 0.042.
For the sequence WVPISPFLTPSH, the protein stability index with Saccharomyces cerevisiae [2] was 0.716 ± 0.025.
The same measure, in the same setting: the figure for WVSILRWDACSR is 0.685 ± 0.014.
Turning to WVSRDFLVEAVW, in the data set with Saccharomyces cerevisiae [2], the protein stability index stood at 0.557 ± 0.026.
Sequence WVTSSTRGRSGS came in with a protein stability index with Saccharomyces cerevisiae [2] of 0.644 ± 0.033.
The same measure, in the same setting: the same measure for WWGCLGGRAGSR: 0.695 ± 0.028.
On the same count and under the same terms, the figure for WWGFGRVCGGGV is 0.774 ± 0.092.
On the same count and under the same terms, the same measure for WYYTCSEFSIYN: 0.693 ± 0.0071; for YAAQLGLGVLVG: 0.6 ± 0.0077; for YACADVSDPLSV: 0.721 ± 0.019.
The sequence YAGDPEAAAEWG came in with a protein stability index with Saccharomyces cerevisiae [2] of 0.68 ± 0.052.
Still for that read-out and setting: the same measure for YCRGGGLAKREV: 0.689 ± 0.021.
Same read-out and setting: the same measure for YDCPLPPSGLTI: 0.688 ± 0.036; for YDYASTCGSCIY: 0.774 ± 0.024; for YERPIVAAVRSR: 0.724 ± 0.02.
In the data set with Saccharomyces cerevisiae [2], YESHVLDRMDGR yielded a protein stability index of 0.651 ± 0.026.
On the same count and under the same terms, the same measure for YFALLMLTPPPP: 0.636 ± 0.022; for YFDVFLRLAFSR: 0.655 ± 0.04.
Same read-out and setting: the figure for YFFRLLYRLWSR is 0.676 ± 0.092; for YFLCPPTSPHRH it is 0.736 ± 0.13; for YGGAWGGVIHVC it is 0.657 ± 0.0081.
Same read-out and setting: the figure for YGILSVRGSLSR is 0.76 ± 0.065; for YGLSVSSLRLWP it is 0.6853 ± 0.0051; for YGMETVAVYTEG it is 0.666 ± 0.019.
For the sequence YGPDQIGPRPGL, the protein stability index in the data set with Saccharomyces cerevisiae [2] was 0.69 ± 0.041.
On to YGRLPNWGASTE, for which, in the data set on Saccharomyces cerevisiae [2], the protein stability index came out at 0.714 ± 0.014.
On the same count and under the same terms, the figure for YIDDGVVENVRV is 0.681 ± 0.02.
Still for that read-out and setting: the figure for YINFQKMRKKFD is 0.723 ± 0.04; for YINILKLVMNQD it is 0.736 ± 0.052.
YIYIFLVWGWYC: the protein stability index is 0.193 ± 0.056 in the data set on Saccharomyces cerevisiae [1] (setting [3]); 0.314 ± 0.016 with Saccharomyces cerevisiae [1] (setting [4]); 0.214 ± 0.033 in the data set with Saccharomyces cerevisiae [1] (setting [5]); 0.4232 ± 0.0041 with Saccharomyces cerevisiae [1] (setting [6]); 0.103 ± 0.013 with Saccharomyces cerevisiae [1] (setting [7]); 0.132 ± 0.0065 in the data set on Saccharomyces cerevisiae [1] (setting [8]). In the data set on Saccharomyces cerevisiae [1] (setting [9]), this sequence yielded a protein stability index of 0.201 ± 0.018.
With YKNKRSNKRKHK, in the data set with Saccharomyces cerevisiae [2], the protein stability index was 0.702 ± 0.0098.
Sequence YLCARGIFTLYV had a protein stability index in the data set on Saccharomyces cerevisiae [2] of 0.602 ± 0.034.
The same measure, in the same setting: the same measure for YLGCPSHLALPL: 0.721 ± 0.076.
The same measure, in the same setting: the same measure for YLGTTHTGTSHR: 0.701 ± 0.019; for YLGYADDLLIML: 0.707 ± 0.018.
Take YLPRLISAPVGP: in the data set with Saccharomyces cerevisiae [2], the protein stability index was determined as 0.753 ± 0.076.
On the same count and under the same terms, the figure for YLYMESTVESHL is 0.719 ± 0.025; for YMTWRGCGWSGG it is 0.697 ± 0.1; for YPDNRGRGPRQP it is 0.686 ± 0.082.
Still for that read-out and setting: the same measure for YPDPLSVSPPPA: 0.682 ± 0.097; for YPSLPTLCSKQP: 0.643 ± 0.084; for YPTLHEPHSPAL: 0.738 ± 0.052.
As to YPTLMRNGTEKT, the protein stability index in the data set on Saccharomyces cerevisiae [2] was determined as 0.696 ± 0.017.
The same measure, in the same setting: the same measure for YPYLLSPRPPPP: 0.628 ± 0.047; for YQPLWTNTITGT: 0.799 ± 0.17; for YRFSKELEQKGQ: 0.68281 ± 0.0003.
For YRLLRINFALPI, the protein stability index in the data set on Saccharomyces cerevisiae [2] was determined as 0.622 ± 0.025.
YSRPAPSAPPHL had a protein stability index with Saccharomyces cerevisiae [2] of 0.698 ± 0.016.
The same measure, in the same setting: the figure for YSRRRKILRKSY is 0.615 ± 0.051; for YSSALLHPTSPV it is 0.655 ± 0.064.
The sequence YSSLLPLSSPSG showed a protein stability index in the data set on Saccharomyces cerevisiae [2] of 0.684 ± 0.04.
On the same count and under the same terms, the figure for YSVLVSLLPPSL is 0.681 ± 0.031.
Still for that read-out and setting: the figure for YTAPIIGIGDDG is 0.659 ± 0.036.
Still for that read-out and setting: the same measure for YTKFASLKRHTQ: 0.636 ± 0.034; for YTTLLVSTNRLS: 0.477 ± 0.082.
The sequence YVGLNHYCIDAL returned a protein stability index with Saccharomyces cerevisiae [2] of 0.723 ± 0.054.
Take YVLLSRFYLPPL: in the data set on Saccharomyces cerevisiae [2], the protein stability index came out at 0.665 ± 0.02.
Same read-out and setting: the same measure for YVSLAHLRWGVE: 0.732 ± 0.055; for YVVMARWSRWYV: 0.522 ± 0.015; for YVWVPCIRSVLV: 0.491 ± 0.018.
For YWGEGGCREGGE, the protein stability index in the data set with Saccharomyces cerevisiae [2] is 0.664 ± 0.056.
Still for that read-out and setting: the same measure for YWSAQGRVVCVL: 0.481 ± 0.07.
Same read-out and setting: the same measure for YYLAVGNRIASR: 0.688 ± 0.043; for YYPLRIADQNGN: 0.795 ± 0.054.
As for YYRARRFRQSRR, in the data set with Saccharomyces cerevisiae [2], the protein stability index is 0.709 ± 0.077.

For the origin of these results see the supplement of paper PMC10724198.
